# Results as given in the supplement of paper PMC9170038.
# System: MS2 coat protein
# Experiment: apparent KD of MS2 coat protein; higher = weaker reporter binding
# Conditions: Eterna round: R107; input ligand: arginine 13.2 mM
# Outline: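 For every design, apparent KD is the median of normalised binding-curve fits from its clusters. The RNA switches were transcribed on-chip from Illumina sequencing clusters and titrated with SNAP-549-labelled MS2 coat protein (twofold steps, 0.7 or 1.5 nM to 3 µM; 0.8–1.5 h to 10–20 min per step). Titrations used 100 mM Tris-HCl pH 7.5, 80 mM KCl, 4 mM MgCl2, without or with constant ligand.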
row,Sequence,apparent KD of MS2 coat protein [nM]
1,AAUCUGUCGGGUGAUACCAGCCUCGGCACAUCUCGUGCCGAACAUGAGGAUCACCCAUGUGGCCCUUGGCAGCACAUGACAAAUC [Usreerso],289
2,ACAUGAGGAUCACCCAUGUGCCGAGUUGAUACCAGACCCGCACUAGUCCCUUGGCAGCAACUACGUGUGGGACACCCAUGUUAAG [qaqmullin],29.1
3,UGUACAUGAGGAUCACCCAUGUUACAUGAUACCAGACAUGAGAGUGUCCCUUGGCAGCAUGGAGCUGAUACGGCGGGAAGCCGGA [#09 SameState-TheophyllineA],26.1
4,GAUCCACAUGAGGAUCACCCAUGUGAGGAUACCAGUACCAGAUCCUACCCUUGGCAGCCUAACCUUCAUUCAACACGAAUAAGAA [theeternabot_sameState_MS2_Theo_A_20],13.8
5,UUUUAAGGGAUCGGAGCUGGUAGCAGAGAUACCAGAGUAGUAAUGCUCCCUUGGCAGCUCAGUACAUGAGGAUCACCCAUGUUUU [Exclusion Theophylline A GF26],16.3
6,GGGUCAGGCGCGGCCGCCACUGCGGUGAUGUGACAUGAGGAUCACCCAUGUUGUCAUGUGGCACAUAGGACCGGGCGCCUGGCCC [#1 Exclusion - Tryptophan B Attempt #7 (HarryS)],25.4
7,GACGGGCCUAUUGAUACCAGACCUAGUGACAACAUGAGGAUCACCCAUGUGACGGCAAAAGUCCCUUGGCAGCAAGUAGAAAUAA [theeternabot_sameState_MS2_Theo_B_41],14
8,CAGUCAGUCAGUCAAUGAGUGAGGCAUGAAGGAGCGUGGGAAACCACAGGUAGGUCGCAUGCGGAACAUGAGGAUCACCCAUGUU [SSArg A #4],31.9
9,CGUGGUGGGACGGAUACCAGCCACCGCGGCAACGCAACAUGAGGAUCACCCAUGUUGGGUGGCCCUUGGCAGCUGUCCUGCGACG [#1 Same State - Theophylline B Attempt #27 (HarryS)],11.5
10,ACCGCAUCCGUAUAGGAUGCGGCCCAUGAAGGAGCGUGGGAAACCACAGGUAGGUCGCAUGGAAAACAUGAGGAUCACCCAUGUG [Alien],114
11,CUUACACAUGAGGAUCACCCAUGUCAUGAUACCAGCCAAUACACUGGCCCUUGGCAGCAUCUCAGCCUCAGCUACAUUGACUGAC [theeternabot_sameState_MS2_Theo_A_2],18.9
12,UGGCAAGAGGGAAGGAGCGUCAGCAGAGUAACAUGAGGAUCACCCAUGUAGCACGUGGUGUGACAGGUAGGUCGCCCUCUGCCGU [SS-ArgB13],28.5
13,ACCUGUACGAAAAGUGCAGGACACGGAAUACGAGGACCGGUACGGCCGCCACUCGGAAUAACCUGAGGAUCACCCUGGUACCGUG [TrypAS 10 #AlternativeMS2 #Zipper #StaticStem],25.8
14,UUAGAUAUGACAGAUACCAGCGUGUUGUUGAACAUGAGGAUCACCCAUGUAGUGAUCGAGCGCCCUUGGCAGCUGGUGUGUUUGG [7.Q],77.6
15,GUUGGUUUGCGAAGGAGCGGGUAUGUUGUCUACUUGAUCCUAACAUGAGGAUCACCCAUGUCCCAGGUAGGUCGCGCGGGCUUUG [12.aC],37
16,ACAUGAGGAUCACCCAUGUAAUGGCACGAUACCAGCUGAUCCCGUGGCCCUUGGCAGCGUCCGGUGUGGUCCGCCGGGUUGGAGC [DDDMULLIN],28.7

# Same assay, conditions: Eterna round: R107; input ligand: none
row,Sequence,apparent KD of MS2 coat protein [nM]
1,UUUUAAGGGAUCGGAGCUGGUAGCAGAGAUACCAGAGUAGUAAUGCUCCCUUGGCAGCUCAGUACAUGAGGAUCACCCAUGUUUU [Exclusion Theophylline A GF26],17.6
2,CAGUCAGUCAGUCAAUGAGUGAGGCAUGAAGGAGCGUGGGAAACCACAGGUAGGUCGCAUGCGGAACAUGAGGAUCACCCAUGUU [SSArg A #4],27.2
3,CGUGGUGGGACGGAUACCAGCCACCGCGGCAACGCAACAUGAGGAUCACCCAUGUUGGGUGGCCCUUGGCAGCUGUCCUGCGACG [#1 Same State - Theophylline B Attempt #27 (HarryS)],11.7
4,ACCGCAUCCGUAUAGGAUGCGGCCCAUGAAGGAGCGUGGGAAACCACAGGUAGGUCGCAUGGAAAACAUGAGGAUCACCCAUGUG [Alien],524
5,UGGCAAGAGGGAAGGAGCGUCAGCAGAGUAACAUGAGGAUCACCCAUGUAGCACGUGGUGUGACAGGUAGGUCGCCCUCUGCCGU [SS-ArgB13],32.4
6,ACCUGUACGAAAAGUGCAGGACACGGAAUACGAGGACCGGUACGGCCGCCACUCGGAAUAACCUGAGGAUCACCCUGGUACCGUG [TrypAS 10 #AlternativeMS2 #Zipper #StaticStem],18.8
7,GUUGGUUUGCGAAGGAGCGGGUAUGUUGUCUACUUGAUCCUAACAUGAGGAUCACCCAUGUCCCAGGUAGGUCGCGCGGGCUUUG [12.aC],45.1

# Same assay, conditions: Eterna round: R107; input ligand: theophylline 20 uM
row,Sequence,apparent KD of MS2 coat protein [nM]
1,AAUCUGUCGGGUGAUACCAGCCUCGGCACAUCUCGUGCCGAACAUGAGGAUCACCCAUGUGGCCCUUGGCAGCACAUGACAAAUC [Usreerso],801
2,ACAUGAGGAUCACCCAUGUGCCGAGUUGAUACCAGACCCGCACUAGUCCCUUGGCAGCAACUACGUGUGGGACACCCAUGUUAAG [qaqmullin],85.5
3,UGUACAUGAGGAUCACCCAUGUUACAUGAUACCAGACAUGAGAGUGUCCCUUGGCAGCAUGGAGCUGAUACGGCGGGAAGCCGGA [#09 SameState-TheophyllineA],40.4
4,GAUCCACAUGAGGAUCACCCAUGUGAGGAUACCAGUACCAGAUCCUACCCUUGGCAGCCUAACCUUCAUUCAACACGAAUAAGAA [theeternabot_sameState_MS2_Theo_A_20],16.7
5,UUUUAAGGGAUCGGAGCUGGUAGCAGAGAUACCAGAGUAGUAAUGCUCCCUUGGCAGCUCAGUACAUGAGGAUCACCCAUGUUUU [Exclusion Theophylline A GF26],21
6,GGGUCAGGCGCGGCCGCCACUGCGGUGAUGUGACAUGAGGAUCACCCAUGUUGUCAUGUGGCACAUAGGACCGGGCGCCUGGCCC [#1 Exclusion - Tryptophan B Attempt #7 (HarryS)],41.5
7,GACGGGCCUAUUGAUACCAGACCUAGUGACAACAUGAGGAUCACCCAUGUGACGGCAAAAGUCCCUUGGCAGCAAGUAGAAAUAA [theeternabot_sameState_MS2_Theo_B_41],16.6
8,CAGUCAGUCAGUCAAUGAGUGAGGCAUGAAGGAGCGUGGGAAACCACAGGUAGGUCGCAUGCGGAACAUGAGGAUCACCCAUGUU [SSArg A #4],26.2
9,CGUGGUGGGACGGAUACCAGCCACCGCGGCAACGCAACAUGAGGAUCACCCAUGUUGGGUGGCCCUUGGCAGCUGUCCUGCGACG [#1 Same State - Theophylline B Attempt #27 (HarryS)],11.6
10,ACCGCAUCCGUAUAGGAUGCGGCCCAUGAAGGAGCGUGGGAAACCACAGGUAGGUCGCAUGGAAAACAUGAGGAUCACCCAUGUG [Alien],442
11,CUUACACAUGAGGAUCACCCAUGUCAUGAUACCAGCCAAUACACUGGCCCUUGGCAGCAUCUCAGCCUCAGCUACAUUGACUGAC [theeternabot_sameState_MS2_Theo_A_2],28.2
12,UGGCAAGAGGGAAGGAGCGUCAGCAGAGUAACAUGAGGAUCACCCAUGUAGCACGUGGUGUGACAGGUAGGUCGCCCUCUGCCGU [SS-ArgB13],77.1
13,ACCUGUACGAAAAGUGCAGGACACGGAAUACGAGGACCGGUACGGCCGCCACUCGGAAUAACCUGAGGAUCACCCUGGUACCGUG [TrypAS 10 #AlternativeMS2 #Zipper #StaticStem],27.5
14,UUAGAUAUGACAGAUACCAGCGUGUUGUUGAACAUGAGGAUCACCCAUGUAGUGAUCGAGCGCCCUUGGCAGCUGGUGUGUUUGG [7.Q],174
15,GUUGGUUUGCGAAGGAGCGGGUAUGUUGUCUACUUGAUCCUAACAUGAGGAUCACCCAUGUCCCAGGUAGGUCGCGCGGGCUUUG [12.aC],63.9
16,ACAUGAGGAUCACCCAUGUAAUGGCACGAUACCAGCUGAUCCCGUGGCCCUUGGCAGCGUCCGGUGUGGUCCGCCGGGUUGGAGC [DDDMULLIN],39.5

# Same assay, conditions: Eterna round: R107; input ligand: theophylline 2 mM
row,Sequence,apparent KD of MS2 coat protein [nM]
1,UUUUAAGGGAUCGGAGCUGGUAGCAGAGAUACCAGAGUAGUAAUGCUCCCUUGGCAGCUCAGUACAUGAGGAUCACCCAUGUUUU [Exclusion Theophylline A GF26],25.3
2,GGGUCAGGCGCGGCCGCCACUGCGGUGAUGUGACAUGAGGAUCACCCAUGUUGUCAUGUGGCACAUAGGACCGGGCGCCUGGCCC [#1 Exclusion - Tryptophan B Attempt #7 (HarryS)],33.2
3,CAGUCAGUCAGUCAAUGAGUGAGGCAUGAAGGAGCGUGGGAAACCACAGGUAGGUCGCAUGCGGAACAUGAGGAUCACCCAUGUU [SSArg A #4],26.8
4,CGUGGUGGGACGGAUACCAGCCACCGCGGCAACGCAACAUGAGGAUCACCCAUGUUGGGUGGCCCUUGGCAGCUGUCCUGCGACG [#1 Same State - Theophylline B Attempt #27 (HarryS)],11.7
5,ACCGCAUCCGUAUAGGAUGCGGCCCAUGAAGGAGCGUGGGAAACCACAGGUAGGUCGCAUGGAAAACAUGAGGAUCACCCAUGUG [Alien],920
6,UGGCAAGAGGGAAGGAGCGUCAGCAGAGUAACAUGAGGAUCACCCAUGUAGCACGUGGUGUGACAGGUAGGUCGCCCUCUGCCGU [SS-ArgB13],46
7,ACCUGUACGAAAAGUGCAGGACACGGAAUACGAGGACCGGUACGGCCGCCACUCGGAAUAACCUGAGGAUCACCCUGGUACCGUG [TrypAS 10 #AlternativeMS2 #Zipper #StaticStem],26.7
8,GUUGGUUUGCGAAGGAGCGGGUAUGUUGUCUACUUGAUCCUAACAUGAGGAUCACCCAUGUCCCAGGUAGGUCGCGCGGGCUUUG [12.aC],81

# Same assay, conditions: Eterna round: R107; input ligand: tryptophan 2.4 mM
row,Sequence,apparent KD of MS2 coat protein [nM]
1,AAUCUGUCGGGUGAUACCAGCCUCGGCACAUCUCGUGCCGAACAUGAGGAUCACCCAUGUGGCCCUUGGCAGCACAUGACAAAUC [Usreerso],520
2,ACAUGAGGAUCACCCAUGUGCCGAGUUGAUACCAGACCCGCACUAGUCCCUUGGCAGCAACUACGUGUGGGACACCCAUGUUAAG [qaqmullin],47.9
3,UGUACAUGAGGAUCACCCAUGUUACAUGAUACCAGACAUGAGAGUGUCCCUUGGCAGCAUGGAGCUGAUACGGCGGGAAGCCGGA [#09 SameState-TheophyllineA],27
4,GAUCCACAUGAGGAUCACCCAUGUGAGGAUACCAGUACCAGAUCCUACCCUUGGCAGCCUAACCUUCAUUCAACACGAAUAAGAA [theeternabot_sameState_MS2_Theo_A_20],15
5,UUUUAAGGGAUCGGAGCUGGUAGCAGAGAUACCAGAGUAGUAAUGCUCCCUUGGCAGCUCAGUACAUGAGGAUCACCCAUGUUUU [Exclusion Theophylline A GF26],17.9
6,GACGGGCCUAUUGAUACCAGACCUAGUGACAACAUGAGGAUCACCCAUGUGACGGCAAAAGUCCCUUGGCAGCAAGUAGAAAUAA [theeternabot_sameState_MS2_Theo_B_41],15.4
7,CAGUCAGUCAGUCAAUGAGUGAGGCAUGAAGGAGCGUGGGAAACCACAGGUAGGUCGCAUGCGGAACAUGAGGAUCACCCAUGUU [SSArg A #4],27.7
8,CGUGGUGGGACGGAUACCAGCCACCGCGGCAACGCAACAUGAGGAUCACCCAUGUUGGGUGGCCCUUGGCAGCUGUCCUGCGACG [#1 Same State - Theophylline B Attempt #27 (HarryS)],10.1
9,ACCGCAUCCGUAUAGGAUGCGGCCCAUGAAGGAGCGUGGGAAACCACAGGUAGGUCGCAUGGAAAACAUGAGGAUCACCCAUGUG [Alien],489
10,CUUACACAUGAGGAUCACCCAUGUCAUGAUACCAGCCAAUACACUGGCCCUUGGCAGCAUCUCAGCCUCAGCUACAUUGACUGAC [theeternabot_sameState_MS2_Theo_A_2],17.8
11,UGGCAAGAGGGAAGGAGCGUCAGCAGAGUAACAUGAGGAUCACCCAUGUAGCACGUGGUGUGACAGGUAGGUCGCCCUCUGCCGU [SS-ArgB13],28.3
12,ACCUGUACGAAAAGUGCAGGACACGGAAUACGAGGACCGGUACGGCCGCCACUCGGAAUAACCUGAGGAUCACCCUGGUACCGUG [TrypAS 10 #AlternativeMS2 #Zipper #StaticStem],19.2
13,UUAGAUAUGACAGAUACCAGCGUGUUGUUGAACAUGAGGAUCACCCAUGUAGUGAUCGAGCGCCCUUGGCAGCUGGUGUGUUUGG [7.Q],225
14,GUUGGUUUGCGAAGGAGCGGGUAUGUUGUCUACUUGAUCCUAACAUGAGGAUCACCCAUGUCCCAGGUAGGUCGCGCGGGCUUUG [12.aC],46.8
15,ACAUGAGGAUCACCCAUGUAAUGGCACGAUACCAGCUGAUCCCGUGGCCCUUGGCAGCGUCCGGUGUGGUCCGCCGGGUUGGAGC [DDDMULLIN],27
